Results on eight sequences are retold here after the DeepSol protein solubility set.

A short description of the data set: soluble on expression in E. coli; label from the status in PepcDB or PDB records.
As to “SNAMRMIDIIEKKRDGHTLTTEEINFFIGGYVKGDIPDYQASSLAMAIYFQDMNDDERVALTMAMVNSGDMIDLSDIKGVKVDKHSTGGVGDTTTLVLAPLVAAVDVPVAKMSGRGLGHTGGTIDKLEAIDGFHVEIDEATFVKLVNENKVAVVGQSGNLTPADKKLYALRDVTGTVNSIPLIASSIMSKKIAAGADAIVLDVKTGSGAFMKTLEDAEALAHAMVRIGNNVGRNTMAIISDMNQPLGRAIGNALELQEAIDTLKGQGPKDLTELVLTLGSQMVVLANKAETLEEARALLIEAINSGAALEKFKTFIKNQGGDETVIDHPERLPQAQYQIEYKAKKSGYVTELVSNDIGVASMMLGAGRLTKEDDIDLAVGIVLNKKIGDKVEEGESLLTIHSNRQDVDDVVKKLDSSITIADHVVSPTLIHKIITE”, the “soluble on expression in E. coli” value is recorded as “soluble”.

In the case of “MSLATEQIQHIAIVGCVHGKYREMYRQLSEYEKSTGKEISFVICTGDMQTLRYEADLVYLKVPPKYKQMGDFHLYYEGKEKAPYLTLFIGGNHESSNVLLHLYNGGFVCFNMYYLGVCSCININGLRIVGVSGIYKSFDEKKPYTYPPSPNDVVSLFHTRNYVIQMLSNLSQSSQIDISLSHDWPQGIVMKGNYKQLYRFQPGFKKDGASLGSPINKVILNTLKPKYWISGHMHCEYHAEEGPTHFIALGKIGYKNAISYLDLPLKQKTDLEYDKDWVCNLIMTWPAFSNKAQFPDLSYSISELLSKRTKELDKKIIELWEKYIGLKIIYDSDTFDIQFTSRRFYIEKIYNELNINEGHHHHHH”, the “soluble on expression in E. coli” value was “soluble”.

On to “MGTITGEFTEHSAEAIAAMLSYIVQTEYEKKQLAKDTLQKYEEVVFLSQFANAVATCTGLQELIEVIRAEIRQVISVDEIFLYLYDQSQDSLTPLLYKTEESLQNFKAIEKIVERVLKLNQVEVIDDIQNDQDYLNQPSKIRSLLCYSLTVQNSIIGVLGLAHYQVKHFDSSDLNLFSTLTGQVAAAIRTAQYYETIKNYSQTLEIRLEHHHHHH”, for which the “soluble on expression in E. coli” value is listed as “not soluble”.

Consider “MLKLGVIGTGAISHHFIEAAHTSGEYQLVAIYSRKLETAATFASRYQNIQLFDQLEVFFKSSFDLVYIASPNSLHFAQAKAALSAGKHVILEKPAVSQPQEWFDLIQTAEKNNCFIFEAARNYHEKAFTTIKNFLADKQVLGADFNYAKYSSKMPDLLAGQTPNVFSDRFAGGALMDLGIYPLYAAVRLFGKANDATYHAQQLDNSIDLNGDGILFYPDYQVHIKAGKNITSNLPCEIYTTDGTLTLNTIEHIRSAIFTDHQGNQVQLPIQQAPHTMTEEVAAFAHMIQQPDLNLYQTWLYDAGSVHELLYTMRQTAGIRFEAEK”, for which the “soluble on expression in E. coli” value is reported as “soluble”.

Take “MIFSKKDIQEVLPADVTGRSVAHPKRWLVALVRISHEKKTSERLSKMGIENFLPVQQEVHQWSDRRKVVERVLLPMMIFVHVDMYEQKEVLTLGSISRYMVLRGESTPAVIPDEQMHRFKFMLDYSDEAINMSTTPLSPGTKIKVIKGPLSGLQGELVTVNGKSKVAVRLTMLGCAFVDIPVGCVEPLEK”: the “soluble on expression in E. coli” value is given as “not soluble”.

With “MKLIGITGMPGSGKSAITKLAEKYKIVVVSMGDVVRYETLKQGMPLNPENVGNTAVKLREIYGKEAIAVPCLNYVNEKYNNEDFVIIEGIRSIYEVNYIKKHAELDIIAIHSSPKTRFERLSGRNREDDSNDWNTFVERDERELNFSIGRVISLADYMVVNEGNYMDFVNDLENTFKKIINVN”, the “soluble on expression in E. coli” value is on record as “not soluble”.

With “MGHHHHHHSHMMQSVDVVIIGGGMVGLALAAALKESDLRIAVVENQLPEEALNPLPDVRVSALSRSSEIVLRNLNAWAGIEARRAAPYIAMEVWEQDSFARIEFKANEMTQPNLGHIVENRVIQLALFEQVQQQANVTLHVPATCQSIAVGESEAWLTLSNGQALSAKLVVGADGANSWLRRQMDIPLTHWDYGHSALVANVRTSDPHNKVARQIFTAQGPLAFLPMSEPHMSSIVWSTEPSRAEALLNMNDVQFNKALTAEFDARLGRCEVVGERQAFPLKMRYARDFVAPRVALVGDAAHTIHPLAGQGVNLGLLDAACLAQELLSLWQQNRDIGDERNLRHYERWRKAEAAKMIAAMQGFRDLFEGDNPAKKLIRGIGMRLVGQLPGAKDEIMKRALGLKGDLPELAKQVWLERAY”, the “soluble on expression in E. coli” value was “soluble”.

Regarding “MVSQRLHHRCDLVFFVVDSKHDQLNLDRFEFWQLTSQLLVLDVCLFDAFALEHHHHHH”, the “soluble on expression in E. coli” value is listed as “not soluble”.
